Measured values reported in publication PMC9677509 (Biochemistry, 2017).

Tests used:
[1] = target: temperature sensitive HARS with the R362H substitution (UniProt P12081); experiment: AUC
AUC = target: the molecule itself; experiment: AUC

Row | stoichiometry N [1] | Molecule | stoichiometry N (AUC)
1 | 2 | temperature sensitive HARS with the R362H substitution (from UniProt P12081 1-509) (enzyme) | –
2 | – | human FLAG-tagged wild type histidyl-tRNA synthetase (HARS) (enzyme, UniProt P12081 1-509, looked up) MAERAALEELVKLQGERVRGLKQQKASAELIEEEVAKLLKLKAQLGPDESKQKFVLKTPKGTRDYSPRQMAVREKVFDVIIRCFKRHGAEVIDTPVFELKETLMGKYGEDSKLIYDLKDQGGELLSLRYDLTVPFARYLAMNKLTNIKRYHIAKVYRRDNPAMTRGRYREFYQCDFDIAGNFDPMIPDAECLKIMCEILSSLQIGDFLVKVNDRRILDGMFAICGVSDSKFRTICSSVDKLDKVSWEEVKNEMVGEKGLAPEVADRIGDYVQQHGGVSLVEQLLQDPKLSQNKQALEGLGDLKLLFEYLTLFGIDDKISFDLSLARGLDYYTGVIYEAVLLQTPAQAGEEPLGVGSVAAGGRYDGLVGMFDPKGRKVPCVGLSIGVERIFSIVEQRLEALEEKIRTTETQVLVASAQKKLLEERLKLVSELWDAGIKAELLYKKNPKLLNQLQYCEEAGIPLVAIIGEQELKDGVIKLRSVTSREEVDVRREDLVEEIKRRTGQPLCIC | 2
3 | – | human FLAG-tagged Y454S histidyl-tRNA synthetase (HARS) (enzyme, UniProt P12081 1-509, looked up) MAERAALEELVKLQGERVRGLKQQKASAELIEEEVAKLLKLKAQLGPDESKQKFVLKTPKGTRDYSPRQMAVREKVFDVIIRCFKRHGAEVIDTPVFELKETLMGKYGEDSKLIYDLKDQGGELLSLRYDLTVPFARYLAMNKLTNIKRYHIAKVYRRDNPAMTRGRYREFYQCDFDIAGNFDPMIPDAECLKIMCEILSSLQIGDFLVKVNDRRILDGMFAICGVSDSKFRTICSSVDKLDKVSWEEVKNEMVGEKGLAPEVADRIGDYVQQHGGVSLVEQLLQDPKLSQNKQALEGLGDLKLLFEYLTLFGIDDKISFDLSLARGLDYYTGVIYEAVLLQTPAQAGEEPLGVGSVAAGGRYDGLVGMFDPKGRKVPCVGLSIGVERIFSIVEQRLEALEEKIRTTETQVLVASAQKKLLEERLKLVSELWDAGIKAELLYKKNPKLLNQLQSCEEAGIPLVAIIGEQELKDGVIKLRSVTSREEVDVRREDLVEEIKRRTGQPLCIC | 2
